Results: article PMC9482650, “Quantitative fragmentomics allow affinity mapping of interactomes” (Nature Communications, 2022)

Experiments:
Assay in all cases: holdup assay
Set-up in all cases: key: below the threshold = too weak to quantify, mostly under pKd 3.1 to 4
Conditions in all cases: plain residues with an end cap or a label only (N-terminal biotin on a linker: ahx)
[1] = target: T1, ARHGAP21, Q5T5U3
T1 sequence (Q5T5U3 45-169, limits assumed, looked up): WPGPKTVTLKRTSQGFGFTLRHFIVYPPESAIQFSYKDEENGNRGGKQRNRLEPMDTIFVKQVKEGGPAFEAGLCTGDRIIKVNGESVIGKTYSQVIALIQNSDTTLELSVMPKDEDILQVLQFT

[2] = target: DLG1_2, Q12959
[3] = target: DLG1_3, Q12959
[4] = target: DLG2_2, Q15700
[5] = target: DLG2_3, Q15700
[6] = target: DLG4_3, P78352
[7] = target: FRMPD2_2, Q68DX3
[8] = target: GIPC2, Q8TF65
[9] = target: GOPC, Q9HD26
[10] = target: GRID2IP_1, A4D2P6
[11] = target: GRIP2_3, Q9C0E4
[12] = target: GRIP2_7, Q9C0E4
[13] = target: HTRA1, Q92743
[14] = target: Inadl_10, Q8NI35
[15] = target: T2, LIN7A, O14910
T2 sequence (O14910 103-200, limits assumed, looked up): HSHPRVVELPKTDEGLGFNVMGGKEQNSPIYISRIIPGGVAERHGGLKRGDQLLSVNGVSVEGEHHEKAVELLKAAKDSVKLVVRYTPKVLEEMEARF

[16] = target: T3, LRRC7, Q96NW7
T3 sequence (Q96NW7 1440-1537, limits assumed, looked up): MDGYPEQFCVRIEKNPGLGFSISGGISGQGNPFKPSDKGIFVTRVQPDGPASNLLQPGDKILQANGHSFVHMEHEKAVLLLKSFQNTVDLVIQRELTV

[17] = target: T4, MPDZ_5, O75970
T4 sequence (O75970 695-796, limits assumed, looked up): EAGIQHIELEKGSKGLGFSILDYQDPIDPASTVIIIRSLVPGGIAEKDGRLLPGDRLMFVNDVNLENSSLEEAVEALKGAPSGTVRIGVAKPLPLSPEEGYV

[18] = target: T5, PARD3B_1, Q8TEW8
T5 sequence (Q8TEW8 196-299, limits assumed, looked up): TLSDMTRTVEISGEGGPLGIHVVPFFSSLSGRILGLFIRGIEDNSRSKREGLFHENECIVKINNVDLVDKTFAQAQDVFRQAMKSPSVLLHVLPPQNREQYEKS

[19] = target: T6, PCLO, Q9Y6V0
T6 sequence (Q9Y6V0 4491-4600, limits assumed, looked up): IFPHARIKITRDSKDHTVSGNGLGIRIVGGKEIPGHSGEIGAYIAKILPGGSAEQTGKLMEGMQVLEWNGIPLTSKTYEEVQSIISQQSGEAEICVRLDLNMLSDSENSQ

[20] = target: T7, PDZD7_3, Q9H5P4
T7 sequence (Q9H5P4 857-944, limits assumed, looked up): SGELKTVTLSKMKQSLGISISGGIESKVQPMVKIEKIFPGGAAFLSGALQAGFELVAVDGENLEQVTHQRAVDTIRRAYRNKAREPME

[21] = target: T8, PTPN13_1, Q12923
T8 sequence (Q12923 1088-1188, limits assumed, looked up): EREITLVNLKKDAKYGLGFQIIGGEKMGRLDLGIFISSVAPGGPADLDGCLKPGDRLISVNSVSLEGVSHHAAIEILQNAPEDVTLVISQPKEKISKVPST

[22] = target: T9, RAPGEF6, Q8TEU7
T9 sequence (Q8TEU7 525-625, limits assumed, looked up): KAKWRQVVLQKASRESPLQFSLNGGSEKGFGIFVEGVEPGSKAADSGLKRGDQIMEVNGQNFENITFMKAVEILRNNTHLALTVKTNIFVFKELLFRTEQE

[23] = target: T10, SIPA1L2, Q9P2F8
T10 sequence (Q9P2F8 945-1036, limits assumed, looked up): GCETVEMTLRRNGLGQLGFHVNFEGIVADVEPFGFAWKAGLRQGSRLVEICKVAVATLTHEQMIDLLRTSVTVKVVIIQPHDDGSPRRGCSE

[24] = target: T11, SNTB1, Q13884
T11 sequence (Q13884 107-205, limits assumed, looked up): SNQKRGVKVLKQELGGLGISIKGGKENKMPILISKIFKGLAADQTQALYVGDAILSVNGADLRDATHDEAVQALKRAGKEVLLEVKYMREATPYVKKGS

[25] = target: T12, SYNJ2BP, P57105
T12 sequence (P57105 8-110, limits assumed, looked up): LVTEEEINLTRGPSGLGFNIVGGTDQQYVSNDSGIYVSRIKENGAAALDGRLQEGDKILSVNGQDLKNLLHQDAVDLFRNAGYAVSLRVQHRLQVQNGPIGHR

Chain of FRMPD2_2, Q68DX3 (Q68DX3 944-1038): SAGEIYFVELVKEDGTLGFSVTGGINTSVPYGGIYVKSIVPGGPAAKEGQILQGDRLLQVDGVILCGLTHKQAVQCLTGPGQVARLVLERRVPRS
Chain of GRIP2_7, Q9C0E4 (Q9C0E4 934-1023): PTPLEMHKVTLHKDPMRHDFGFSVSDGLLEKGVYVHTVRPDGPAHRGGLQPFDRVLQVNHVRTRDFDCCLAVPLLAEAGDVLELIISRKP
Chain of DLG4_3, P78352 (P78352 306-403): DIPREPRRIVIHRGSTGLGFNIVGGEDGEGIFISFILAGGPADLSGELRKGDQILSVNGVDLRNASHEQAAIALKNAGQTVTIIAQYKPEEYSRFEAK
Chain of DLG1_3, Q12959 (Q12959 457-571): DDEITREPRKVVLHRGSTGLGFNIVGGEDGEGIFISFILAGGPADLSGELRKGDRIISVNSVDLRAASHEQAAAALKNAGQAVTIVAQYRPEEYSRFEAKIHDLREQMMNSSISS
Chain of GRID2IP_1, A4D2P6 (A4D2P6 1-87): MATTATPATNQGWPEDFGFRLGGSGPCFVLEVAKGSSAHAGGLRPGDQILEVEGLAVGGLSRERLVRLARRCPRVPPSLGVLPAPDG
Chain of GIPC2, Q8TF65 (Q8TF65 112-203): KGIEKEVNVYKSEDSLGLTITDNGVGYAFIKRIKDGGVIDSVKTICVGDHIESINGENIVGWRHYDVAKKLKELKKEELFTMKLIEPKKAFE
Chain of GRIP2_3, Q9C0E4 (Q9C0E4 238-339): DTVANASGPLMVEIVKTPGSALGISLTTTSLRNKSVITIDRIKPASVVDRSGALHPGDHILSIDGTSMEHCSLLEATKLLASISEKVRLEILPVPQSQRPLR
Chain of HTRA1, Q92743 (Q92743 360-477): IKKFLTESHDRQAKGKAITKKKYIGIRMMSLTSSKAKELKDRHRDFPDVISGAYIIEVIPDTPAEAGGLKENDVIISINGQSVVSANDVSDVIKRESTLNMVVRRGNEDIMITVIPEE
Chain of Inadl_10, Q8NI35 (Q8NI35 1673-1763): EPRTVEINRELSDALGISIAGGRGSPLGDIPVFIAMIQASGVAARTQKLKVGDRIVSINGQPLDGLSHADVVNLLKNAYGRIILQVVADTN
Chain of DLG1_2, Q12959 (Q12959 314-412): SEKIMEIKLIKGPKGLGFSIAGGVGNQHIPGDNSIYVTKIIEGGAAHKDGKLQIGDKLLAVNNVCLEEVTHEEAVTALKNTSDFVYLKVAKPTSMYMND

Q: GIFPTLTSPL [SHROOM3, Q8TF72] was tested. Which pKd [1] did it give?
A: Its pKd is “below the threshold”.

Q: What about the pKd [2] of the same binder?
A: The pKd was “below the threshold”.

Q: What about the pKd [3] of the same binder?
A: The pKd was “below the threshold”.

Q: And the pKd [4]?
A: The pKd was “below the threshold”.

Q: What about the pKd [5] of the same binder?
A: The pKd was “below the threshold”.

Q: What about the pKd [6] of the same binder?
A: The pKd was “below the threshold”.

Q: What about the pKd [7] of the same binder?
A: The pKd was “below the threshold”.

Q: What about the pKd [8] of the same binder?
A: Its pKd is “below the threshold”.

Q: What about the pKd [9] of the same binder?
A: Its pKd is “below the threshold”.

Q: And the pKd [10]?
A: Its pKd is “below the threshold”.

Q: What about the pKd [11] of the same binder?
A: The pKd was “below the threshold”.

Q: What about the pKd [12] of the same binder?
A: Its pKd is “below the threshold”.

Q: And the pKd [13]?
A: Its pKd is “below the threshold”.

Q: And the pKd [14]?
A: Its pKd is “below the threshold”.

Q: And the pKd [15]?
A: The pKd was “below the threshold”.

Q: And the pKd [16]?
A: The pKd was “below the threshold”.

Q: And the pKd [17]?
A: The pKd was “below the threshold”.

Q: And the pKd [18]?
A: The pKd was “below the threshold”.

Q: And the pKd [19]?
A: The pKd was “below the threshold”.

Q: What about the pKd [20] of the same binder?
A: Its pKd is 3.51.

Q: And the pKd [21]?
A: Its pKd is “below the threshold”.

Q: What about the pKd [22] of the same binder?
A: The pKd was “below the threshold”.

Q: And the pKd [23]?
A: Its pKd is “below the threshold”.

Q: What about the pKd [24] of the same binder?
A: The pKd was “below the threshold”.

Q: And the pKd [25]?
A: The pKd was “below the threshold”.
